Assay results as given in patent US20200283521A1 (GRANULAR THERAPEUTICS, published 2020).
Changes are numbered by the printed parent chain. In names and notes the source's numbering stands. Like-named read-outs stand apart in the source and are kept apart here.

Experiments:
human C-KIT-Fc [1] = target: T1, human C-KIT-Fc (human, UniProt P10721 26-524); test: HTRF epitope competition in solution; competitor IgG1-3M titrated against terbium-labelled h37M IgG1 on biotinylated human C-KIT-Fc
T1 construct: also called biotinylated human C-KIT-Fc; not shown: Fc part not described

[2] = target: T2, human C-KIT, full length, on cells (human, UniProt P10721 26-976); test: cell-based or functional assay
[3] = target: T3, cynomolgus monkey C-KIT-Fc (cynomolgus monkey); test: HTRF epitope competition in solution; competitor IgG1-3M titrated against terbium-labelled h37M IgG1 on cyno C-KIT-Fc
T3 construct: also called cyno C-KIT-Fc

[4] = target: T2, human C-KIT, full length, on cells; test: cell-based or functional assay; remark: listed apart in the source
[5] = target: T4, cynomolgus monkey C-KIT, full length, on CHO-K1 cells (cynomolgus monkey); test: cell-based or functional assay
[6] = target: T2, human C-KIT, full length, on cells; test: flow cytometry, C-KIT-transfected CHO-K1 cells, IgG1 format
human C-KIT-Fc [7] = target: T1, human C-KIT-Fc; test: HTRF competition on human C-KIT-Fc against terbium-labelled h37M IgG1
[8] = target: T2, human C-KIT, full length, on cells; test: flow cytometry, C-KIT-transfected CHO-K1 cells, IgG1 format; remark: listed apart in the source
human C-KIT-Fc [9] = target: T1, human C-KIT-Fc; test: HTRF competition on human C-KIT-Fc against terbium-labelled h37M IgG1; remark: listed apart in the source
[10] = target: T4, cynomolgus monkey C-KIT, full length, …; test: flow cytometry, C-KIT-transfected CHO-K1 cells, IgG1 format
[11] = target: T2, human C-KIT, full length, on cells; test: as above; remark: listed apart in the source
[12] = target: T3, cynomolgus monkey C-KIT-Fc; test: direct titration ELISA on coated C-KIT-Fc, IgG1 format
human C-KIT-Fc [13] = target: T1, human C-KIT-Fc; test: HTRF epitope competition in solution; unlabelled h37M IgG1-3M titrated against terbium-labelled h37M IgG1 on biotinylated human C-KIT-Fc

B1: MH1, IgG1-3M format (antibody, V domains shown)
VH: QVQLVQSGAEVKKPGASVKVSCKASGYTFTDYYMNWVRQAPGQGLEWMGRIYPGSGNTYYAQKFQGRVTMTRDTSTSTVYMELSSLRSEDTAVYYCARGVYYYDYWGQGTLVTVSS
VL: DIQMTQSPSSLSASVGDRVTITCRASQGIRTNLAWFQQKPGKAPKSLIYAASSLQSGVPSRFSGSGSGTDFTLTISSLQPEDFATYYCQQYNSYPRTFGGGTKVEIK
notes: human IgG1 with L234A/L235A/G237A; also called C-KIT-MH1
- IC50 (read off the curve) (human C-KIT-Fc [1]): ~0.01 µg/mL
- TF-1 proliferation, fold less potent than h37M [2]: 26.5 fold
- IC50 (read off the curve) [3]: ~0.02 µg/mL
- Human C-KIT CHO FabZAP IC50 (pM) [4]: 8.7 pM
- TF-1 FabZAP IC50 (pM) [4]: 51.1 pM
- TF-1 proliferation IC50 [4]: 2.86 nM
- Cyno C-KIT CHO FabZAP IC50 (pM) [5]: 14 pM

B2: MH5-DI, IgG1-3M format (antibody, V domains shown)
VH: B1 VH
VL: B1 VL with N92A, S93N
- TF-1 proliferation, fold less potent than h37M [2]: 244 fold
- Human C-KIT CHO FabZAP IC50 (pM) [4]: 12.6 pM
- TF-1 FabZAP IC50 (pM) [4]: 53.7 pM
- TF-1 proliferation IC50 [4]: 26.3 nM
- Cyno C-KIT CHO FabZAP IC50 (pM) [5]: 13.5 pM

B3: MH2 (antibody, IgG1, V domains shown)
VH: B1 VH
VL: B1 VL with A50S, N92A
notes: IgG1
- binding result [6]: binds
- binding result (human C-KIT-Fc [7]): binds

B4: MH5, IgG1-3M format (antibody, V domains shown)
VH: B1 VH
VL: B1 VL with A50S, N92A, S93N
notes: human IgG1 with L234A/L235A/G237A
- IC50 (read off the curve) (human C-KIT-Fc [1]): ~0.03 µg/mL
- IC50 (read off the curve) [3]: ~0.02 µg/mL

B5: MH7 (antibody, IgG1, V domains shown)
VH: B1 VH
VL: B1 VL with A50S, R96H
notes: IgG1
- binding result [8]: binds
- binding result (human C-KIT-Fc [9]): binds

B6: MH3 (antibody, IgG1, V domains shown)
VH: B1 VH
VL: B1 VL with A50S, S93A
notes: IgG1
- binding result [6]: binds
- binding result (human C-KIT-Fc [7]): binds

B7: chimeric anti-C-KIT antibody m37M, human IgG1 (antibody, V domains shown)
VH: QVQLKQSGAELVRPGASVKLSCKASGYTFTDYYINWVKQRPGQGLEWIARIYPGSGNTYYNEKFKGKATLTAEKSSSTAYMQLSSLTSEDSAVYFCARGVYYFDYWGQGTTLTVSS
VL: DIVMTQSQKFMSTSVGDRVSVTCKASQNVRTNVAWYQQKPGQSPKALIYSASYRYSGVPDRFTGSGSGTDFTLTISNVQSEDLADYFCQQYNSYPRTFGGGTKLEIKR
- EC50 (read off the curve) [10]: ~0.2 µg/mL
- EC50 (read off the curve) [11]: ~0.2 µg/mL
- EC50 (read off the curve) [12]: ~0.1 µg/mL

B8: h37M-IgG1-3M (antibody, V domains shown)
VH: QVQLVQSGAEVKKPGASVKLSCKASGYTFTDYYINWVRQAPGKGLEWIARIYPGSGNTYYNEKFKGRATLTADKSTSTAYMQLSSLRSEDTAVYFCARGVYYFDYWGQGTTVTVSS
VL: DIVMTQSPSSLSASVGDRVTITCKASQNVRTNVAWYQQKPGKAPKALIYSASYRYSGVPDRFTGSGSGTDFTLTISSLQPEDFADYFCQQYNSYPRTFGGGTKVEIK
notes: human IgG1 with L234A/L235A/G237A; also called C-KIT-h37M
- IC50 (read off the curve) (human C-KIT-Fc [13]): ~0.01 µg/mL
